Assay results as given in paper PMC5680780.

Molecular target: recombinant Clonorchis sinensis pyruvate kinase (Clonorchis sinensis)
Experiment: native gel or EMSA + SEC; purified rCsPK on 8% native PAGE against marker proteins; gel filtration on a Sepharose 12 10/300 GL column (AKTA FPLC), 0.8 ml/min, 50 mM Tris-HCl, 100 mM KCl, pH 7.5; apparent Mr about 290 kDa against a subunit of about 58 kDa

Substance: recombinant Clonorchis sinensis pyruvate kinase (enzyme)
- stoichiometry N: 5
